Data reported in patent publication US8183228B2, “Anticoagulant antithrombotic dual inhibitors comprising a biotin label” (MSD OSS B.V. Netherlands, priority 2005, dated 2012).
Counter-ions that a name gives are not always drawn.

Test: Pharmacokinetics - neutralization experiment with avidin i.v. in rat
Assay type: in vivo
Settings: s.c. 500 nmol/kg
Method: 3.2 Pharmacokinetics—Neutralization Experiment:
Rats were treated with compound 10, 12, or 27 at a dose of 100 nmol/kg s.c. At t=1 h, a blood sample was taken and 10 mg/kg of Avidin (from egg white, Sigma) was administered i.v. to the rats treated with compound 10 or 12. Blood was sampled at 0.5-1-3-6 and 23 hours subsequently. The blood was treated as described in the pharmacokinetic experiment and the concentration of the samples was determined by measuring the (residual) anti-Xa activity. (FIG. 8)
In a separate experiment compound 10, 17 or 26 was administered at a dose of 500 nmol/kg s.c. after which blood was collected at 24 hours. Then 10 mg/kg avidin was administered intravenously and blood was collected at 25 and 26 hours. (FIG. 9)

CO[C@H]1O[C@H](COS(=O)(=O)O)[C@@H](O[C@@H]2O[C@@H](C(=O)O)[C@@H](O[C@H]3O[C@H](COS(=O)(=O)O)[C@@H](O[C@@H]4O[C@H](C(=O)O)[C@@H](O[C@H]5O[C@H](COS(=O)(=O)O)[C@@H](OCCOCCOCCOCCNC(=O)[C@H](CCCCN(C)C(=O)CCCC[C@@H]6SC[C@@H]7NC(=O)N[C@@H]76)NC(=O)COCCOCCOCCOCCNC(=O)c6cccc(S(=O)(=O)N[C@@H](Cc7ccc(OCCCCC8CCNCC8)cc7)C(=O)O)c6)[C@H](OC)[C@H]5OC)[C@H](OC)[C@H]4OC)[C@H](OS(=O)(=O)O)[C@H]3OS(=O)(=O)O)[C@H](OC)[C@H]2OC)[C@H](OS(=O)(=O)O)[C@H]1OS(=O)(=O)O [Compound 26, sodium salt]
level at time molar at 24 h (plasma, sc, 24 h, before avidin, read-out: Plasma level T = 24 h): 1070 ± 58 nM | Plasma level T = 26 h (2 hours after avidin 10 mg/kg i.v. at t = 24 h): 361 ± 26 nM | % reduction of plasma concentration (within 2 hours after avidin 10 mg/kg i.v. at t = 24 h, sodium salt): 66%
